Data on 19 sequences can be found in the DeepSol protein solubility set.

A short description of this data set: soluble on expression in E. coli; label from the status in PepcDB or PDB records.
“MRYGFMKVAAAVPFVKVADCEYNIERIDRMVHEADAKGVEIMTFPELSITGYSCGDLFFQPFLQERANEALCRLVEQTANTTVMVIVGMPLRVEEKLFNSAVVFQQGKILGAIPKTYLPNYREFQEARWFSPAHTLQYSTISIGQHSVPIGRNLIFKCGTVGVGIEICEDMWTPFTPGTRLCLYGAEVIFNLSSSNENAGKHSYLRSLISGLSSQGICAYVYASSGYGESSTDIVFTGKAFIAEAGEIVEEMERFRYEERMIISDIDVSRIQTERLINSSFKAAVTFHTHDEKFNQLPFKLRSRQESLPMTRRVDRNPFMPEDKDRKERSREMINIQVCGLMQRLLHMGAEHAVIGISGGLDSALALIVCAQAFDRLDLPRKNIIAVTMPGFGTSDRTYRNAFALMEAIGVTIKEIDIKEACLRHFEAIGHNPEVQDTTFENTQARERTQILMNLANIYNAPVIGTGDLSELALGWVTYNGDHMSMYAVNAGIAKTTVQILVDHIAHSGWLDEAASAVLLDIVRTPISPELKPVGQLEHHHHHH”: the “soluble on expression in E. coli” value is given as “not soluble”.

As to “MRYLDAEAIENIATGAAFLGTGGGGDPYIGKMMALSAIEENGPVKLVSPEEIAAEDFFLPAAMMGAPSVAIEKFPKGDEFVRVFEKLGKYLDQETIAGTFPMEAGCVNSMIPIVVAAKLGIPLVDCDGMGRAFPELPMVTFHLNGMSATPMAITDEKGNIGIMETIDNTWTERLARVQTVEMGASALVSIYPATGKQLQDYGIHNIVTLSEEIGKVIRGTYADEQEKRQALVEVTDGFELFQGKILDVEREVKGGFNLGRVKLSGLNSDAGSEAVVHFQNENLIAEKDGQVIAMTPDLICMVDLETLTPVTTESLKYGKRVQVMGLKANAAWRTKKGIETVGPRYFGYEMDYQPLENLVAKEDKLEHHHHHH”, the “soluble on expression in E. coli” value is recorded as “soluble”.

Take “MSALAVALARQSESHADCPLFNDPYAQVFIDAALSRGCQLPSDETSERINGIANYASSRTKWFDEYFIAAGAHGLEQMVIVAAGLDARAWRLPWVAGTTLFEIDHPGVLKFKNEALHEHGESPSVSRYVPVPADLSDGWSERLRDAGFDVSEPTAWAVEGLLPYVADGPHLLFDRIHEISPAGSRLAVEAVGTGVADWLSTQGWQVTMIGAQELMTRYGRCGDHSDTDAGMDTVFVNATRTR”: the “soluble on expression in E. coli” value is recorded as “soluble”.

As for “MSANSKDRNQSNQDAKRQQQNFPKKISEGEADLYLDQYNFTTTAAIVSSVDRKIFVLLRDGRMLFGVLRTFDQYANLILQDCVERIYFSEENKYAEEDRGIFMIRGENVVMLGEVDIDKEDQPLEAMERIPFKEAWLTKQKNDEKRFKEETHKGKKMARHGIVYDFHKSDMY”, the “soluble on expression in E. coli” value is listed as “not soluble”.

“MSAPKPFVIGIAGGTASGKTTLAQALARTLGERVALLPMDHYYKDLGHLPLEERLRVNYDHPDAFDLALYLEHAQALLRGLPVEMPVYDFRAYTRSPRRTPVRPAPVVILEGILVLYPKELRDLMDLKVFVDADADERFIRRLKRDVLERGRSLEGVVAQYLEQVKPMHLHFVEPTKRYADVIVPRGGQNPVALEMLAAKALARLARMGAA”: the “soluble on expression in E. coli” value is listed as “soluble”.

Regarding “MSAPLYMQIKQFILDKIDSGDWMVGQRIATEIELTEQFGVSRMTVNKAIRDLVNEGKLQRRPRLGTFVCDPSEKSESPLLDIRNIAEEVSDRGRQYSSKVVQQVAIKADDSIAIKLGVMLGTTVFYSEIIHYEDSTPIQLELRWVNSQYAPSYLSQDFTQITPNQYLSNNCPLSAIEHTVEAIVPDNRIKLDLKMQANEPCLLLNRRTWSQDKLVSTALLYHPGNKYKLSSKVLL”, the “soluble on expression in E. coli” value is on record as “not soluble”.

“MSARLDAQIAFLKQADRLKSVERANVLLDLSRPENSAEHSWHLALWALVLSPFAAPDVDVDRAIRMLLLHDLVEIETGDHPIHEVTDWQAVERAERAAARKLFGLLPPDQAADFHTLWTEFDADETADARYAKMLDRCQPMFQVLCADTPRPDHVEVVRENLSSGRAAYLAEAFPEAHAHARALLERHPPVTGGFGDRLEFLAEADRLKTVLRASRLMDDSRFENSAEHSWHIMLYAWVLGEYAAAPVDIDRVLRMLLLHDLVEIDAGDNPIHGNVDHAAQEALEAAAAERLFGLLPPDQGAGLRAIWQEFETAQSADALFGKAVDRVQTPIANLENGGGSWVTYDVSLQQLVARVGTPVSRGAPGLWDWLFPQLSDCFTRLGLRLLEHHHHHH”: the “soluble on expression in E. coli” value is “soluble”.

“MSASYQTIEHDVPQSYRDKILKWNGWGYSDSQFAINKDGHVTFTGDKYEISGKVMPHFRPWFENYLGIDLGFVSPAQKLSDVIIDAPVENEDIIEFLQENKISFSNEARIRLMRGHGHTVHDMINLREGKIPRLPDIVVWPKSEHEIVKIIEGAMSHNCAIIPIGGGTSVTNALDTPETEKRAVISMDMALLDKILWIDRENLTCRAQAGIVGQSLERQLNKKGFTCGHEPDSIEFSTLGGWVSTRASGMKKNKYGNIEDLVVHLNFVCPKGIIQKQCQVPRMSSGPDIHQIILGSEGTLGVVSEVTIKIFPIPEVKRFGSFVFPNFESGVNFFREVAIQRCQPASLRLMDNDQFVMGQALKVASDSWWADLKSSVSKMYITSWKGFKVDEICAATCVYEGNREEVDQHEERLNKLAEQFHGVVGGAENGQYGYRLTFAIAYLRDLGMNHGVLGESFETSVPWDKVLSLCRNVKELMKREAKAQGVTHPVLANCRVTQVYDAGACVYFYFGFNARGLKNGLEVYDRIETAARDEIIACGGSISHHHGVGKIRKQWMLTTNGAVGIALLKAIKSELDPANIFASANLIDIIGSPHCKL”: the “soluble on expression in E. coli” value is “not soluble”.

For the sequence “MSATGKVSRPIQVFTRANYFFKLIFQFKVRKYNSLTVERIFIRAMCGSDDSFDDFVPDSQEPASSRTRNQDHLDDDEVPCSQRPDAANDTMVEDLDEGDEPAHDESEDIIKILVATDIHCGYGENKANIHMDAVNTFEEVLQIATEQKVDMILLGGDLFHENNPSREVQHRVTQLLRQYCLNGNPIALEFLSDASVNFNQSVFGHVNYYDQNLNVGLPIFTIHGNHDDLSGKGLTALDLLHESGLVNLFGKHSNIQEFIVSPILLRKGETRLALYGIGSQRDDRLVRAFKNNSISFLRPNAGAEDWFNLFVLHQNRPRRAMHRSTGNFLPESLIPQFFDLLIWGHEHECKPDPQYVASSEAVGDGFYILQPGSTVATSLTPEEALQKNAFLIKIKGRKFASKPIPLQTVRPMVCDELLLDKIPPGSRPILKTDRPKHTDGRYIDEIAIEAKINEMITTAKAKRRPRQPELPLIRLKVIYDGDWLNITPANAKRIGLRYENVVANAVDMVFIKKNNKPKEGKLQTENEKNITEMADEMGQVSATNLQTIINDYFINQPLVDQMTVLKPIGIGRALEQYSAIEEGGLATSANRNFDSCLMHQIDVVRKTLKKMPLPPINDPSDLDKFRDLITKDLYDMKKADSERFKNPVADVEMEEDEDDPQYYMPPQSTSRTNYASGSEDEVANSDEEMGSSISRHSKQPTTRGRGRGARGAGASRETTRGRSNKVVSTRQIDSDGFEIINDSPSPPPASRSTRGKARGKSAPSKKRDLSFF”, the “soluble on expression in E. coli” value was “not soluble”.

In the case of “MSAVVITDRHRRILKVNPAFTSISGFSANEVIGKNTFDVLLSESENIDKRLTTWKQVEELGAWQGELDVLSKNKRKLSLLVRIQSVKSKRKATQYYIISYIDITKR”, the “soluble on expression in E. coli” value is given as “not soluble”.

For “MSAYKQANRLIHEKSPYLLQHAYNPVDWYPWCDEAFEKAKRENKPIFLSIGYSTCHWCHVMESESFEDEEVAEILNKNFVSIKVDREERPDIDSIYMTACQALTGHGGWPLTIIMTPDKKPFFAGTYFPKKDRMGMPGLISILKSVHNTWVNEKDSLAKYSSKVVSVISESIDDDYYYSVDEITEDIFEDAFSQFKYDFDNIYGGFGNAPKFPMPHNLYFLLRYWHKAKEEYALVMVEKTLDSMYSGGIYDHIGFGFCRYSTDEKWLVPHFEKMLYDNALLAIAYLETYQATKNKKYADIAKEIFTYVLRDMTSPEGGFYSAEDADSEGEEGKFYIWSPTEIKEVLGESDGEKFCKYYNITEEGNFEGLNIPNLINSTIPDEDKEFVELCRKKLFDHREKRVHPHKDDKILTAWNGLMIAALAIGGRVLGIEKYTLAAEKASEFIFSKLVRPDGRLLARYRDGEAAFLAYLDDYAFLIWALIELYETTYKPMYLKKAMELTNDMIKYFWDNKKGGLFIYGSDSEQLITRPKEIYDGAIPSGNSVAALNFLRLSRLTGQQELEEKAHQMFALFGSKIDSMPQGYAFFLTAMLFSKSKSNEVVLVGSNEKDTQNMLSILSEDFRPFTTSILYSEEHKDLKELIPFIDNYTTIENKPTAYVCENFVCHEPITDGALLREKLNR”, the “soluble on expression in E. coli” value is “soluble”.

Turning to “MSAYKTVVVGTDGSDSSMRAVDRAAQIAGADAKLIIASAYLPQHEDARAADILKDESYKVTGTAPIYEILHDAKERAHNAGAKNVEERPIVGAPVDALVNLADEEKADLLVVGNVGLSTIAGRLLGSVPANVSRRAKVDVLIVHTT”, the “soluble on expression in E. coli” value was “not soluble”.

As to “MSCCKECGHTLENVEVEAYEKRQVFDIPPVNLIVTEHKSQIKTCPHCGRINKAVFPESVKYPVQYGPNILASAIYCKNHHFIPYERISEFFEDIMGIKICPATIIRAEKECFQNLECFENIIREKLMTSYVVHFDETGMKIEGKRHWLHVASNDKYTCYLPHSKRGAEAIDAMGILPEFKGVAVHDGWKPYNVYDCDHAL”, the “soluble on expression in E. coli” value is “not soluble”.

For the sequence “MSCRFYQHKFPEVEDVVMVNVRSIQEMGAYVSLLEYNNIEGMIHLSELSRRRIRSINKLIRIGRNECVKVIRVDKEKGYIDLSKRRVSPEEAIKCEDKFTKSKTVYSILRHVAEVLEYTKDEQLESLFQRTAWVFDDKYKRPGYGAYDAFKHAVSDPSILDSLDLNEDEREVLINNINRRLTPQAVKIRADIEVACYGYEGIDAVKEALRAGLNCSTENMPIKINLIAPPRYVMTTTTLERTEGLSVLSQAMAVIKEKIEEKRGVFNVQMEPKVVTDTDETELARQMERLERENAEVDGDLEHHHHHH”, the “soluble on expression in E. coli” value is listed as “soluble”.

As to “MSDANPVFADYFKSWYGTYKIPGKSRTTVVRYETIYKKLNAYYGKAKLAKVTRKSYQIFMNEYGKKHAKDTVYKTNGSIRSCVRDGVADGIIQKDFTQKINLTWNLEHHHHHH”, the “soluble on expression in E. coli” value is “not soluble”.

As for “MSDEEEEDVNFKPGTEISSTKANYTVVRLLGEGGFGAVYLVQDNKSKKQSAMKVERKIEKRKHSKLKMEIAILKLVGSGKHFTQIVDRGKKDKEGFFFLVMELVGKSLADLKADRPDKVFSFATGLGVSCQCLEAVEELHKTGFIHRDLKPQNYACGLDEKRHNIYILDFGIARKYLNTKNELKTPRETVGFKGTVRFAPIACHRNTEMGPKDDCESWFYLLLDLIVPSGLPWRKLSDKHEVLKEKEECRKDKRSSLFAGLRQTDYLSKVLDYIDGRAYQDRVDYQFIYKNLAEACKVCNLDIDSPYDWELQKPEKTSKEPTSSKMP”, the “soluble on expression in E. coli” value is reported as “not soluble”.

“MSDEESFVILGSSPCSSLMPDSSLRSDVCGNAQEAKETVASTSTQPPTVNCIPVSITASQQQHKSLDSGSSQQQSLATSFIMGEIQSDVLKNSVYSQFPSLCSLQGSAEEVVKLQNMMTEYLALKSQPNHAELPQPDSTMAPGSRRPRTPVQGACERVPSANRDPSRGKPRAEEGPRDENRADLEHHHHHH”: the “soluble on expression in E. coli” value was “not soluble”.

Take “MSDEVPEILLAHYLKTLKLPTFQREYQKLARLCATEGVDHVEYLLRLSEREMIERDRRKVERRIKAARFPVVKSLDSFDFAAIPKLNKMQVLELARCEWIERRENVIALGPSGTGKTHVALGLGLAACQKGLSVGFTTAAALVSEMMEARDERRLLRFQKQMAAYQLLIIDELGFVPLSKTGAELLFELISQRYERGATLITSNLPFDEWTETLGSERLTGALLDRITHHVNILEMNGDSYRLAQSRARKAGAAALEHHHHHH”: the “soluble on expression in E. coli” value is reported as “soluble”.

For the sequence “MSDIEVFELDDNFDPLEDIGLVDEEDIEHHDYQMPIPDAELSVVPEPVQLTPREKMDKLIAGIPGHKQRIVEVIRICEEPLTASEIEERLNDTYPQSASVYDAARIADLLVEAEGLVRLNAEEGADEETVAAPKTDTEHPEADVDAVVTPHAGVDETGDYLEVQPPEPSRYVATDEGLAFVAAMTDMAPVMELLEKEPRYLPIYERILRMTSNEEGCGKAELNKAIDSDELCQEPRRYTEYFLFRLQEVAAVRWNRVWYATDLGTSALNSNIFTK”, the “soluble on expression in E. coli” value is on record as “not soluble”.
